Values of other authors in paper PMC6423427.

Target: BiP (Homo sapiens) (UniProt P11021)
Chain of UniProt P11021 (P11021 19-654): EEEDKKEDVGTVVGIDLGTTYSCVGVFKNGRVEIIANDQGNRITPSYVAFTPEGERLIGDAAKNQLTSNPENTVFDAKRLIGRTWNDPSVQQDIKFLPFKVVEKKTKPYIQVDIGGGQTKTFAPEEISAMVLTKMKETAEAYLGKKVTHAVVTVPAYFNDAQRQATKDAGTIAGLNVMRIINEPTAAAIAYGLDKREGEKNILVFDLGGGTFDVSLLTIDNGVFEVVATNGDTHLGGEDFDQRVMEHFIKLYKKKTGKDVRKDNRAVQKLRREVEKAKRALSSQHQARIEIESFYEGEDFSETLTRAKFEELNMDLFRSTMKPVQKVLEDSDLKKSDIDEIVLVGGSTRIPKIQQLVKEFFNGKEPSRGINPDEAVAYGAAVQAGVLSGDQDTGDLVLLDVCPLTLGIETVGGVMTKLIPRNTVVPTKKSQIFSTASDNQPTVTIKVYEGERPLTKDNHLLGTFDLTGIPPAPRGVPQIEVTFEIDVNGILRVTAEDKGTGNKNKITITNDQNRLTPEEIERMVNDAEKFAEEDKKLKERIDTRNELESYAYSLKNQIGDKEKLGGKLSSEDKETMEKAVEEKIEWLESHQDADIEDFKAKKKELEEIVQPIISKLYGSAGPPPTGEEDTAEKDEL

Kd: 1500 nM
Substance: IRE1 LD (from UniProt O75460)
